Test results from patent US20180319842A1 (TUFTS MEDICAL CENTER, published 2018).
Groups on a side chain read outwards from the residue. No end group written: not given here. *: point of attachment. PEG8 = NCCOCCOCCOCCOCCOCCOCCOCCOCCC(=O)O; Palmitoyl = CCCCCCCCCCCCCCCC(=O)*

What was measured:
Experiment in all cases: cell-based or functional assay
[1] = target: T1, Mas-related G protein-coupled receptor X1 (MrgprX1), wild type (human, UniProt Q96LB2 1-322)
MrgprX1 R131S variant = MrgprX1 R131S variant (human, UniProt Q96LB2 1-322)
Sequence of MrgprX1 R131S variant (Q96LB2 whole entry R131S): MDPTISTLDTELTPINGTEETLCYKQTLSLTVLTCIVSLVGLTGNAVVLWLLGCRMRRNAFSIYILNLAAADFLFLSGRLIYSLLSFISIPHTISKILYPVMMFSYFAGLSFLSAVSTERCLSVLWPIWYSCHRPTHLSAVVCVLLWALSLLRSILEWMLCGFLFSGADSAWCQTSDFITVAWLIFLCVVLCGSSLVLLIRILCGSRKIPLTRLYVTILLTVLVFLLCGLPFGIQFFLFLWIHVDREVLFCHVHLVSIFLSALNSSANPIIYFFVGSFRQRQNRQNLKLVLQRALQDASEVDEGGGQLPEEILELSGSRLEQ

MrgprX1 H133R variant = MrgprX1 H133R variant (human, UniProt Q96LB2 1-322)
Sequence of MrgprX1 H133R variant (Q96LB2 whole entry H133R): as the sequence (Q96LB2 whole entry R131S) above, with S131R, H133R counted along it

MrgprX1 H137R variant = MrgprX1 H137R variant (human, UniProt Q96LB2 1-322)
Sequence of MrgprX1 H137R variant (Q96LB2 whole entry H137R): as the sequence (Q96LB2 whole entry R131S) above, with S131R, H137R counted along it

MrgprX1 F273L variant = MrgprX1 F273L variant (human, UniProt Q96LB2 1-322)
Sequence of MrgprX1 F273L variant (Q96LB2 whole entry F273L): as the sequence (Q96LB2 whole entry R131S) above, with S131R, F273L counted along it

[2] = target: T1, Mas-related G protein-coupled receptor …; remark: listed apart in the source
MrgprX1 I36V variant = MrgprX1 I36V variant (human, UniProt Q96LB2 1-322)
Sequence of MrgprX1 I36V variant (Q96LB2 whole entry I36V): as the sequence (Q96LB2 whole entry R131S) above, with I36V, S131R counted along it

MrgprX1 A46T variant = MrgprX1 A46T variant (human, UniProt Q96LB2 1-322)
Sequence of MrgprX1 A46T variant (Q96LB2 whole entry A46T): as the sequence (Q96LB2 whole entry R131S) above, with A46T, S131R counted along it

MrgprX1 R55L variant = MrgprX1 R55L variant (human, UniProt Q96LB2 1-322)
Sequence of MrgprX1 R55L variant (Q96LB2 whole entry R55L): as the sequence (Q96LB2 whole entry R131S) above, with R55L, S131R counted along it

T1 sequence (Q96LB2 whole entry): as the sequence (Q96LB2 whole entry R131S) above, with S131R counted along it

potency relative to soluble BAM8-22, SRE-luciferase reporter, HEK293 cells [1]: ~100 fold higher potency than soluble BAM8-22
Curve Maximum, SRE-luciferase reporter, HEK293 cells (MrgprX1 R131S variant): 40.4 % of WT signal at 10^-6 M lipidated BAM8-22
EC50 (nM), SRE-luciferase reporter, HEK293 cells (MrgprX1 R131S variant): 57.1 nM
pEC50, SRE-luciferase reporter, HEK293 cells (MrgprX1 R131S variant): 7.24
Curve Maximum, SRE-luciferase reporter, HEK293 cells (MrgprX1 H133R variant): 110 % of WT signal at 10^-6 M lipidated BAM8-22
EC50 (nM), SRE-luciferase reporter, HEK293 cells (MrgprX1 H133R variant): 8.6 nM
pEC50, SRE-luciferase reporter, HEK293 cells (MrgprX1 H133R variant): 8.06
Curve Maximum, SRE-luciferase reporter, HEK293 cells (MrgprX1 H137R variant): 109 % of WT signal at 10^-6 M lipidated BAM8-22
EC50 (nM), SRE-luciferase reporter, HEK293 cells (MrgprX1 H137R variant): 7.9 nM
pEC50, SRE-luciferase reporter, HEK293 cells (MrgprX1 H137R variant): 8.1
Curve Maximum, SRE-luciferase reporter, HEK293 cells (MrgprX1 F273L variant): 95.9 % of WT signal at 10^-6 M lipidated BAM8-22
EC50 (nM), SRE-luciferase reporter, HEK293 cells (MrgprX1 F273L variant): 12.1 nM
pEC50, SRE-luciferase reporter, HEK293 cells (MrgprX1 F273L variant): 7.92
Curve Maximum, SRE-luciferase reporter, HEK293 cells [2]: 101 % of WT signal at 10^-6 M lipidated BAM8-22
EC50 (nM), SRE-luciferase reporter, HEK293 cells [2]: 12 nM
pEC50, SRE-luciferase reporter, HEK293 cells [2]: 7.92
Curve Maximum, SRE-luciferase reporter, HEK293 cells (MrgprX1 I36V variant): 109 % of WT signal at 10^-6 M lipidated BAM8-22
EC50 (nM), SRE-luciferase reporter, HEK293 cells (MrgprX1 I36V variant): 9.3 nM
pEC50, SRE-luciferase reporter, HEK293 cells (MrgprX1 I36V variant): 8.03
Curve Maximum, SRE-luciferase reporter, HEK293 cells (MrgprX1 A46T variant): 112 % of WT signal at 10^-6 M lipidated BAM8-22
EC50 (nM), SRE-luciferase reporter, HEK293 cells (MrgprX1 A46T variant): 9.5 nM
pEC50, SRE-luciferase reporter, HEK293 cells (MrgprX1 A46T variant): 8.02
Curve Maximum, SRE-luciferase reporter, HEK293 cells (MrgprX1 R55L variant): 108 % of WT signal at 10^-6 M lipidated BAM8-22
EC50 (nM), SRE-luciferase reporter, HEK293 cells (MrgprX1 R55L variant): 10.2 nM
pEC50, SRE-luciferase reporter, HEK293 cells (MrgprX1 R55L variant): 7.99
Binder: VGRPEWWMDYQKRYGGGK([PEG8-Palmitoyl]) [Lipidated BAM8-22]
